Experimental findings from publication PMC11082178 are described below.

The target in this experiment is CRF01_AE Env consensus with redesigned HV loops, version 1 (shortest V1HV, without the 'IGNITD' motif), Env on pseudovirus (HIV-1 CRF01_AE (consensus)).

Substance 10-1074 (antibody) had a neutralisation of Env pseudovirus in TZM-bl cells, IC50 of 0.544 µg/mL.
